# Source: patent publication US20250109187A1 (NOVAVAX, published 2025)
# B1: NVX.324.6 (antibody, V domains shown)
# VH: EVQLQQSGPELGKPGTSMKISCKASGYSFTGYTMNWVKQSHGKNLEWIGLINPYNGGTSYNQKFKDKATLTVDKSSSTAYMELLSLTSEDSAVYYCVREHYYYDSGYGGYYAMDYWGQGTSVTVSS
# VL: QIVLSQSPAILSASPGDKVTMTCRASASVNYMYWYQQKPGSSPKPWIYATSNLASGVPARFSGSGSGTSYSLTISRVEAEDAAIYYCQQWSSNPYTFGGGTKLEIK
# notes: also called mAb NVX.324.6
# B2: NVX.62.12 (antibody, V domains shown)
# VH: QVQLQQSGAELVRPGVSVKISCKGSGYTFTDYAMHWVKQSHAKSLEWIGVISTYSGDAYYNQKFKGKATVTVDKSSSTAYMELARLTSEDSAIYFCARNWDDYYAMDYWGQGTSVTVSS
# VL: QIILSQSPAILSASPGERVTMTCRATSSVSYMHWYRQKPGSSPQPWIYATSNLASGVPARFSGSGSGTSYSLTISRVEAEDAATYYCQQWSGNPWTFGGGTKLEIK
# notes: also called mAb NVX.62.12
# Experiments:
# [1] = target: T1, Prototype (Wuhan-Hu-1) rS (SARS-CoV-2 (parent virus, Wuhan-Hu-1), UniProt P0DTC2 14-1273); assay: ELISA: rS coated, mAb titrated, anti-mouse HRP
# T1 construct: also called Prototype rS; Prototype spike
# [2] = target: T1, Prototype (Wuhan-Hu-1) rS
Binder,EC50 [1] [µg/mL],IC50 [2] [µg/mL]
B1,> 5,> 3
B2,> 5,> 3
